Measurements reported in patent US20180044415A1 (AbbVie / Abbott, published 2018).

T1: human DLL3 (immobilized human DLL3 or h293-hDLL3 cells) (human, UniProt Q9NYJ7 27-492, limits assumed)
T1 construct: the sentence says 'immobilized human DLL3 or h293-hDLL3 cells'
T1 sequence: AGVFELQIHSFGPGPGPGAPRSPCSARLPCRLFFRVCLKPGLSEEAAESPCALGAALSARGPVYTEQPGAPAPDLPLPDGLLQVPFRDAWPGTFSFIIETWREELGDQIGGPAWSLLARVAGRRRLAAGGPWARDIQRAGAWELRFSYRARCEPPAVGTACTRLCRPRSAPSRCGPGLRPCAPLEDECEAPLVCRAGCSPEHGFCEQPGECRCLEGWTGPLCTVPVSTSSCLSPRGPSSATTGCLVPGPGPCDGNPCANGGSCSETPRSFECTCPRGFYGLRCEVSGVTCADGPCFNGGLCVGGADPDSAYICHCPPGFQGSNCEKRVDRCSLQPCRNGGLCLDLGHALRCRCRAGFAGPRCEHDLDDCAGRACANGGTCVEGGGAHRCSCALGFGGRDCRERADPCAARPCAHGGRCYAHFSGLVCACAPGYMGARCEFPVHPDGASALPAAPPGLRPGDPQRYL


Target: T1, human DLL3 (immobilized human DLL3 or …)
Test: hybridoma screening on immobilized human DLL3 or on h293-hDLL3 cells

Row | Binder | binding result
1 | SC16.63 (antibody, V domains shown, murine mAb; variable regions only) VH: QVQLQQSGTELLRPGASVKISCKATGYTFSSYWMEWVKQRPGHGLEWIGEILPGSGTTQYNEKFKGKATFTADTSSNTAYMHLSSLTSEDSAVYYCARGTNSLWGQGTLVTVSA VL: QIVLTQSPAIMSASPGEKVTMTCSASSSVSYMYWYQQKSGTSPKRWIYDTSKLASGVPARFSGSGSGTSYSLTISSMEAEDAATYYCQQWSSNPYTFGGGTKLEIK | binds
2 | SC16.61 (antibody, V domains shown, murine mAb; variable regions only) VH: EVLLQRSGPDLVKPGASVTIPCKASGYTFTDYNMDWVKQSHGKSLEWIGNINTYNGGTIYNQKFKGKATLTVDKPSSTAYMELRSLTSEDTAVYYCARRLRYGGHYFDYWGQGTALTVSS VL: DIVMTQSTSSLAMSVGQKVTMSCKSSQSLLNSSNQKNYLAWYQQEPGQSPKLLVSFASTRESGVPDRFTGSGSGTDFTLTISGVQAEDLAVYYCQQHYSIPLTFGAGTKLELK | binds
3 | SC16.67 (antibody, V domains shown, murine mAb; variable regions only) VH: EVQLVETGGGLVQPKGSLKLSCAVSAFTFTTYAMNWVRQAPGKGLEWVARIRNKSNNYATYYADSVKDRFTISRDDSQSMLYLQMNNLKIEDTAMYYCVFYYDYVYWGQGTLVTVSA VL: QAVVTQESALTTSPGETVTLTCRSSTGAVTTSNYANWIQEKPDHLFTGLIGGTNNRAPGVPARFSGSLIGDKAALTITGAQTEDEAIYFCGLWYSNHLVFGGGTKLTVL | binds
4 | SC16.57 (antibody, V domains shown, murine mAb; variable regions only) VH: EVKLVESGGDLVKPGGSLKLSCAASGFAFSSYDMSWVRQTPEKRLEWVATISSGGSYTYYPDSVKGRFTISRDNVRDTLYLQMSSLRSEDTALYYCARQAIGTYFDYWGQGTTLTVSS VL: DIVMTQSHKFMSISVGDRVSITCKASQDVSIFVAWYQQKPGQSPKLLIYSASYRYTGVPDRFTGSGSGTDFIFTISSVQAEDLAVYYCQQHYGTPFTFGSGTKLKIR | binds
5 | SC16.52 (antibody, V domains shown, murine mAb; variable regions only) VH: QVQLKESGPGLVAPSQSLSITCAVSGFSLTSFAIHWFRKPPGKGLEWLGVIWTGGTTNYNSALMSRLSISKDNSKSQVFLKMNSLQTDDTAMYYCARDDYDNNYAMDYWGQGTSVTVSS VL: DIQMIQSPSSMFASLGDRVSLSCRASQGIRGTLDWYQQKPNGTIKLLIYSTSNLNSGVPSRFSGSGSGSDYSLTISSLESEDFADYYCLQRNAYPLTFGAGTKLELK | binds
6 | SC16.38 (antibody, V domains shown, murine mAb; variable regions only) VH: EVQLQQSGAELVKPGASVKLSCTVSGFNIKDTYIHWVKQRPEQGLEWIGRIDPANGNTKYDPKFQGKATITADTSSNTAYLQLSSLTSEDTAVYYCARPTGYFEYWGQGTTLTVSS VL: QIVLTQSPAIMSASPGEKVTMTCSASSSINYMHWYQQKPGTSPKRWIYDTSKLASGVPARFSGSGSGTSYSLTISSMEAEDAATYYCHQRSTWTFGGGTKLEIK | binds
7 | SC16.47 (antibody, V domains shown, murine mAb; variable regions only) VH: EVQLQQSGPELVKPGASVKISCKASGYSFSRFYMHWVKQSPENSLEWIGEINPSTGGTSYNQKFKGKATLTVDKSSSTAYMQLKSLTSEESAVYYCTRGYGSNCYFDVWGAGTTVTVST VL: DVVLTQSPLSLPVNIGDQASISCKSTKSLLNSDGFTYLDWYLQRPGQSPQFLIYLVSNRFSGVPDRFSGSGSGTDFTLKISRVEAEDLGVYYCFQSNYLPLTFGAGTKLELR | binds
8 | SC16.45 (antibody, V domains shown, murine mAb; variable regions only) VH: QVQLQQSGADLVRPGTSVKVSCKASGYSFTNYLIEWVKQRPGQGLEWIGVINPGSGGTHYNEKFKDKAVLTADKSSTTAHMQLSSLTSDDSAVYFCARSPYDYNDGAMDYWGQGTSVTVSS VL: EIQMTQSPSSMSASLGDRITITCQATQDIVKNLNWYQQKPGKPPSFLIYYATELAEGVPARFSGSGSGSDYSLTISNLESEDFADYHCLQFYEFPFTFGAGTKLELK | binds
9 | SC16.35 (antibody, V domains shown, murine mAb; variable regions only) VH: DVQLQESGPGLVKPSQSLSLTCTVTGYSITSDYAWNWIRQFPGNKLEWMGYISYSGSTSYNPSLKSRISITRDTSKNQFFLQLNSVTTEDTATYYCARFYYGSSYAMDYWGQGTSVTVSS VL: DIQMTQTTSSLSASLGDRVTISCRASQDISNYLNWYQQKPDGTVKLLIYYTSRLHSGVPSRFSGSGSGTDYSLTISNLEQEDIATYFCQQGNTLPYTFGGGTKLEIK | binds

The remaining lines, values ahead:

Row | binding result | Binder
10 | binds | SC16.65 (antibody, V domains shown, murine mAb; variable regions only) VH: QVTLKESGPGILQPSQTLSLTCSFSGFSLSTSGMGVGWIRQPSGKGLEWLALIWWDDVKRYNPALKSRLTISKDASSSQVFLKIASVDTADTATYYCARIASYDYDVVYAMDYWGQGTSVSVSS VL: QIVLTQSPALMSASPGEKVTMTCSVTSSVSYMYWYQQKPRSSPKPWIYLTSNLASGVPARFSGSGSGTSYSLTISSVEAEDAATYYCQQWRNNPFTFGSGTKVEIK
11 | binds | SC16.72 (antibody, V domains shown, murine mAb; variable regions only) VH: EVQLQQSGPELVKPGASVKMSCKASGYTFTSYVMHWVKQKPGQGLEWIGYINPYNDGTKYNEKFKGKATLTSDKSSSTAYMELSSLTSEDSAVYYCARLRSRAMDYWGQGTSVTVSS VL: ENVLTQSPAIMSASLGEKVTMSCRASSSVNYMSWYQQKSDASPKLWIYYTSNLAPGVPARFSGSGSGNSYSLTISSMEGEDAATYYCQQFTSSPYTFGGGTKLEIK
12 | binds | SC16.73 (antibody, V domains shown, murine mAb; variable regions only) VH: QVQLQQSGAELMKPGASVKISCKANGYTFSSYWIEWLRQRPGHGLEWIGEILPGSDNSNYNEKFKGKATFTADTSSNTAYMQLSSLTSEESAVYYCTRGLRRDGSYYYVMEHWGQGTSVTVSS VL: DIQMTQSPSSLSASLGERVSLTCRASQDIGYSLNWLQQEPDGTIKRLIYATSSLDSGVPKRFSGSRSGSDYSLTISSLESEDFVDYYCLQYASSPWTFGGGTKLEIK
13 | binds | SC16.79 (antibody, V domains shown, murine mAb; variable regions only) VH: EVQLQQSGPELVKPGASVKISCKTSGYTFTEYTMHWVKQSHGKSLEWIGGINPNNGGTSYNQKFKGKATLTVDKSSSTAYMELRSLTSEDSAVYYCARGPAWFAYWGQGTLVTVSA VL: DIVMSQSPSSLAVSAGEKVTMSCKSSQSLLNSRTRKNYLAWYQQKPGQSPKLLIYWASTRESGVPDRFTGSGSGTDFTLTISSVQAEDLAVYYCKQSYNLYTFGGGTKLKIK
14 | binds | SC16.30 (antibody, V domains shown, murine mAb; variable regions only) VH: QVTLKESGPGILQPSQTLSLTCSFSGFSLSTSGMGVGWIRQPSGKGLEWLAHIWWDDVKRYKPALKSRLTVSKDTSSNQVFLKIATVDAADTGTYYCARIVDGHPPFAYWGQGTLVTVSA VL: QIVLTQSPTIMSASLGERVTMTCTASSSVTSSYLHWYQQKPGSSPKLWIYSTSNLASGVPARFSGSGSGTSYSLTISSMEAEDAATYYCHQFHRSPFTFGSGTKLEIK
15 | binds | SC16.42 (antibody, V domains shown, murine mAb; variable regions only) VH: QIQLVQSGPELKKPGETVKISCKASGYTFTTAGMQWVQKMPGKGFKWIGWINTHSGEPKYADDFKGRFAFSLETSASTAYLQISNLKDEDTATFFCAPLWSDSSFAYWGQGTLVTVSA VL: DVLMTQSPLSLSVSLGDQASISCRSSQNIVHSDRYTYLEWYLQKPGQSPKLLIYGVSNRFSGVPDRFSGSGSGTDFTLKISRVEAEDMGVYYCFQGTHVPYTFGGGTKLEIK
16 | binds | SC16.49 (antibody, V domains shown, murine mAb; variable regions only) VH: QVQLQQSGPELVKPGTLVKISCKASGYTFTSYDINWVKQRPGQGLEWIGWIYPGDGNTKYSEKFKGKATLTADKSSSTAYMQLTSLTSENSAVYFCARDYDYPFAYWGQGTLVTVSA VL: DIKMTQSPSSMYASLGERVTITCKASQDINSYLSWFQQKPGKSPKTLIYRANRLVDGVPSRFSGSGSGQDYSLTITSLEYEDMGIYYCLQYDEFPLTFGAGTKLELK
17 | binds | SC16.78 (antibody, V domains shown, murine mAb; variable regions only) VH: EVKLVESGGGLVKPGGSLKLSCAASGFTFGRYVMSWVRQTPEKKLEWVASITSGGTTYYPDSVKGRFTISRDNARNILYLQMSSLRSEDTAMYYCARVYYHYDDIFAYWGQGTLVTVSA VL: DIKMTQSPSSMYASLGERVTITCKASQDINSYLSWFQQKPGRSPKTLIYRANRLVDGVPSRFSGSGSGQDYSLTISSLDYEDMGIYYCLQYDEFPFTFGSGTKLEIK
18 | binds | SC16.55 (antibody, V domains shown, murine mAb; variable regions only) VH: EVQLVESGGGLVQPKGSLKLSCAVSAFTFTTYAMNWVRQAPGKGLEWVARIRNKSNNYATYYADSVKDRFTISRDDSQSMLYLQMNNLKIEDTAMYYCVFYYDYVYWGQGTLVTVSA VL: DIKMTQSPSSMYASLGERVTITCKASQDINSYLNWFQQKPGKSPKTLIYRANRLVDGVPSRFSGSGSGQDYSLTISSLEYEDMGIYYCLQYDEFPYTFGGGTKLEIK
19 | binds | SC16.62 (antibody, V domains shown, murine mAb; variable regions only) VH: EVMLVESGGDLVKPGGSLKLSCAASGFTFSSYAMSWVRQTPEKRLEWVAYISGGGDHIYYPDSVRGRFTISRDNAKDTLYLQMSSLRSEDTALYDCARVRDWYFDVWGAGTTVTVSS VL: DIKMTQSPSSMYASLGERVTITCKASQDINSFLSWFQRKPGKSPKTLIYRANRLVDGVPSRFTGSGSGQEFSLTISSLEYEDLGIYYCLQYDEFPYTFGGGTKLEIK
20 | binds | SC16.58 (antibody, V domains shown, murine mAb; variable regions only) VH: DVQLVESGGGLVQPGGSRKLSCAASGFTFSSFGMHWVRQAPEKGLEWVAYISSGSSNIYYADTVKGRFTISRDNPKNTLFLQMTSLRSEDTAMYYCARGYYGNYDAMDYWGQGTSVTVSS VL: DIQMTQSPASLSSSVGETVTITCRASENIYSYLAWYQQKQGKSPQLLVYNAKTLAEGVPSRFSGSGSGTQFSLKINSLQPEDFGTYYCQHHYDSPLTFGAGTKLELR
